Reference: patent US20220177587A1, “METHODS AND USES OF VARIANT CD80 FUSION PROTEINS AND RELATED CONSTRUCTS” (Alpine Immune Sciences, Inc., priority 2018, published 2022)

How the values were obtained:
[1] = molecular target: CD28 (human) (UniProt P10747)
[2] = molecular target: PD-L1 (human) (UniProt Q9NZQ7)
[3] = molecular target: CD28 (human) (UniProt P10747); remark: listed apart in the source
[4] = molecular target: PD-L1 (human) (UniProt Q9NZQ7); remark: listed apart in the source
[5] = molecular target: CD28 (human) (UniProt P10747); experiment: flow cytometry, Jurkat cells (CD28)
[6] = molecular target: human CTLA-4 (human) (UniProt P16410); experiment: flow cytometry, CHO cells expressing CTLA4
[7] = molecular target: PD-L1 (human) (UniProt Q9NZQ7); experiment: flow cytometry, CHO cells expressing PD-L1
[8] = molecular target: PD-L1 (human) (UniProt Q9NZQ7); experiment: flow cytometry, MFI on PD-L1 over MFI on CD28
[9] = molecular target: PD-L1 (human) (UniProt Q9NZQ7); experiment: flow cytometry, CHO cells expressing huPD-L1
[10] = molecular target: human CTLA-4 (human) (UniProt P16410); experiment: flow cytometry, CHO cells expressing huCTLA4

Sequence of PD-L1 (human) (Q9NZQ7 19-290): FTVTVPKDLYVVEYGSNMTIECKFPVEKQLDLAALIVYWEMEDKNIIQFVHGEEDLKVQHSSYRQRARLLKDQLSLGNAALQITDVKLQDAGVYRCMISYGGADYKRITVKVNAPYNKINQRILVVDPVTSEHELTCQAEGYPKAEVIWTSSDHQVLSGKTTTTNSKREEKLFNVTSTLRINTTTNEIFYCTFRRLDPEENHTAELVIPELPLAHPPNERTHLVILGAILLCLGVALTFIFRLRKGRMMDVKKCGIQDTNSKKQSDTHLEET
Sequence of human CTLA-4 (human) (P16410 36-223): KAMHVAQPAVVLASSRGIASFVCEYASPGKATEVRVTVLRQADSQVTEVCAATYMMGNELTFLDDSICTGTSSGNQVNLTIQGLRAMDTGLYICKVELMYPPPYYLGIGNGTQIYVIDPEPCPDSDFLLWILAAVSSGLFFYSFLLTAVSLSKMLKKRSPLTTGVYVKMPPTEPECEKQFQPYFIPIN

Row | Jurkat/IL2 reporter RLU at 50 nM, CHO/OKT3/PD-L1 aAPC [1] [RLU] | Jurkat/IL2 reporter RLU at 50 nM, CHO/OKT3 aAPC without PD-L1 [1] [RLU] | Jurkat/IL2 reporter RLU at 50 nM, CHO/OKT3/PD-L1 aAPC [2] [RLU] | IL-2 release, primary T cells + K562/OKT3/PD-L1, 100 nM [3] | IL-2 release, primary T cells + K562/OKT3/PD-L1, 100 nM [4] | Substance | also measured
1 | 2000 | 432 | 2000 | 1460 | 1460 | CD80 A26E/E35D/M47L/L85Q IgV-Fc (inert) (Fc fusion) | –
2 | 695 | 606 | 695 | 102 | 102 | CD80 E23G/A26S/E35D/T62N/A71D/L72V/L85M IgV-Fc (inert) (Fc fusion) | –
3 | 1610 | 448 | 1610 | 2740 | 2740 | CD80 E35D IgV-Fc (inert) (Fc fusion) | –
4 | 3780 | 894 | 3780 | 8310 | 8310 | CD80 E35D/M47I IgV-Fc (inert) (Fc fusion) | –
5 | 476 | 440 | 476 | 59 | 59 | CD80 E35G/K54E/A71D/L72P IgV-Fc (inert) (Fc fusion) | –

Second part, the substance before the results:

Row | Substance | Jurkat/IL2 reporter RLU at 50 nM, CHO/OKT3/PD-L1 aAPC [1] [RLU] | Jurkat/IL2 reporter RLU at 50 nM, CHO/OKT3 aAPC without PD-L1 [1] [RLU] | Jurkat/IL2 reporter RLU at 50 nM, CHO/OKT3/PD-L1 aAPC [2] [RLU] | IL-2 release, primary T cells + K562/OKT3/PD-L1, 100 nM [3] | IL-2 release, primary T cells + K562/OKT3/PD-L1, 100 nM [4] | also measured
6 | CD80 E24D/E35D/M47L/V68M/E95V/L97Q IgV-Fc (Fc fusion) | – | – | – | – | – | Fold change to WT CD80 [5]: 0.5 fold; MFI at 33.3 nM [5]: 15 MFI; Fold change to WT CD80 [6]: 8.8 fold; MFI at 33.3 nM [6]: 15500 MFI; Fold change to WT CD80 [7]: 362 fold; MFI at 33.3 nM [7]: 18600 MFI; Ratio of PDL1:CD28 [8]: 1270
7 | CD80 E35D/D46V/L85Q IgV-Fc (inert) (Fc fusion) | – | 720 | – | 1430 | 1430 | –
8 | CD80 E35D/M43I/M47L/V68M IgV-Fc (Fc fusion) | – | – | – | – | – | Fold change to WT CD80 [5]: 48.3 fold; MFI at 33.3 nM [5]: 1520 MFI; Fold change to WT CD80 [6]: 9.3 fold; MFI at 33.3 nM [6]: 16200 MFI; Fold change to WT CD80 [7]: 328 fold; MFI at 33.3 nM [7]: 16900 MFI; Ratio of PDL1:CD28 [8]: 11.1
9 | CD80 E35D/M47I/L70M IgV-Fc (inert) (Fc fusion) | 2630 | 600 | 2630 | 8390 | 8390 | –
10 | CD80 E35D/M47L IgV-Fc (inert) (Fc fusion) | – | 817 | – | 7530 | 7530 | –
11 | CD80 E35D/M47L/V68M/E95V/L97Q IgV-Fc (Fc fusion) | – | – | – | – | – | Fold change to WT CD80 [5]: 0.5 fold; MFI at 33.3 nM [5]: 14 MFI; Fold change to WT CD80 [6]: 8.5 fold; MFI at 33.3 nM [6]: 15000 MFI; Fold change to WT CD80 [7]: 361 fold; MFI at 33.3 nM [7]: 18600 MFI; Ratio of PDL1:CD28 [8]: 1300
12 | variant CD80 IgV-Fc E24D/Q33L/E35D/M47V/K54R/L85Q (Fc fusion) | – | – | – | – | – | MFI at 33.3 nM [9]: 67100 MFI; MFI at 33.3 nM [10]: 311000 MFI
13 | variant CD80 IgV-Fc E35D/M47I/K54R/L85E (Fc fusion) | – | – | – | – | – | MFI at 33.3 nM [9]: 36900 MFI; MFI at 33.3 nM [10]: 8660 MFI
